Data on three molecules can be found in patent US20250339531A1, “DUX4 POLYPEPTIDES AND NUCLEIC ACIDS FOR TREATING INFLAMMATORY AND AUTOIMMUNE CONDITIONS” (Fred Hutchinson Cancer Center, priority 2021, published 2025).

For one assay, the system named is STAT1. Briefly: Anti-FLAG co-immunoprecipitation and western blot for STAT1. The settings on record: anti-FLAG IP from MB135 cells ± IFNG. The class given is binding, human. As for the experimental part: Centrifugation at 2500 rcf at 4° C. for 5 min pelleted the nuclei, supernatant was discarded, and nuclei resuspended in 1 mL IP buffer pH 7.4 (25 mM Tris-HCl pH 7.5, 175 mM NaCl, 1 mM EDTA, 0.2% NP-40, 5% glycerol) and incubated for 1 hour at 4° C. with rotation then spun at 21000 rcf for 10 minutes at 4° C. to pellet insoluble debris. Protein concentration was determined using the Pierce BCA Protein Assay Kit (ThermoFisher, 23225). An equivalent amount of protein per sample was pre-cleared with Dynabeads Protein G (Invitrogen) bound to mouse IgG (Abcam #131368) for 1 hour at 4° C. with rotation. FLAG-tagged constructs were then immunoprecipitated with Dynabeads Protein G beads coupled to mouse anti-FLAG M2 mAb (Sigma F3165) for 3 hours at 4° C. with rotation. Beads were washed 3× with 1 mL IP buffer and eluted by adding 2× NuPage LDS Sample Buffer (Thermo Fisher, diluted from 4× with PBS) to the beads and heating for 10 minutes at 70° C.
Antibodies against STAT1 [EPR4407] (ab109320), pSTAT1 Y701 [M135] (ab29045), pSTAT1 S727 [EPR3146] (ab109461), YBX1 [EP2708Y] (ab76149), PABPC1 (ab21060), hnRNPM [EPR13509 (B)] (ab177957), PRKDC [Y393] (ab32566), and HSP90AB1 [EPR16621] (ab203085) were purchased from Abcam. Antibodies against FLAG tag [M2] (F1804) and [M2] (F3146) were purchased from Sigma Aldrich. Antibodies against DDX3X [D19B4] (8192S), hnRNPK [R332] (4675S), TRIM28 [C42G12] […]
(Immunoblotting shows a protein as a band on a membrane.)

The subject of assay [1] is interferon-stimulated genes IFIH1, ISG20, CXCL9, and CD74. Briefly: IFNG induction of interferon-stimulated genes, RT-qPCR in MB135 cells with doxycycline-inducible transgenes. As to conditions: MB135 cells, doxycycline-induced transgene, continuous protocol, IFNG 16 h. Format: cell-based, human. The procedure: All myoblast experiments were conducted in immortalized MB135 or MB200 myoblast cell lines (isolated from a control or FSHD2 subject, respectively cultured in Ham's F-10 Nutrient Mix (Gibco) supplemented with 15% fetal bovine serum (Hyclone), 100 U/100 μg/ml penicillin/streptomycin (Gibco), 1 μM dexamethasone (Sigma), and 10 ng/ml recombinant human basic fibroblast growth factor (PeproTech). To differentiate the myoblasts to myotubes, media was changed to DMEM supplemented with 10 μg/ml insulin (Sigma) and 10 μg/ml transferrin (Sigma). Cell lines containing doxycycline-inducible transgenes were additionally cultured with 2 μg/mL puromycin (Sigma). Transgenes were induced with 1 μg/mL of doxycycline (Sigma) for 4 hours prior to other treatments for a total of 20 hrs. The Kitra-SRS cells (RRID:CVCL_YI69) were provided by Dr. H. Otani and Osaka University (Nakai et al., 2019) and were cultured in DMEM supplemented with 10% fetal bovine serum (Hyclone) and 100 U/100 μg/ml penicillin/streptomycin (Gibco). Biological replicates consisted of independent but parallel experiments, such as simultaneously stimulating three cell culture plates with IFNγ. Technical replicates consisted of repeat measurements of the same biological sample, such as loading the same biological sample in triplicate for analysis by RT-qPCR.
Myoblasts were transfected with either (final concentrations) 10 μM 2′,3′-cGAMP (Sigma Aldrich), 2 μg/mL poly(I:C) (Invitrogen), or 1 μg/mL 3′ppp-dsRNA RIG-I ligand (Dan Stetson Lab, UW) using Lipofectamine 2000 according to manufacturer's protocol, or were stimulated with 1000U IFNβ (PeproTech) or 200 ng/ml IFNγ (R+D Systems) by addition directly to cell culture medium. After 16 hours of immune stimulation, RNA was collected from cells using the NucleoSpin RNA Kit (Macherey-Nagel) according to manufacturer's instructions. RNA samples were quantified by nanodrop and 1 μg of RNA per sample was treated with DNase I Amplification Grade (Thermo Fisher), and then synthesized into cDNA using the Superscript IV First-Strand Synthesis System, including oligo dT primers (Invitrogen). qPCR was run in 384-well plates on an Applied Biosystems QuantStudio 6 Flex Real-Time PCR System (ABI) and analyzed in Microsoft Excel.

Another assay has as its target T1, pSTAT1-Y701, pSTAT1-S727 (Homo sapiens, UniProt P42224).
T1 construct: co-localization of endogenous STAT1 and pSTAT1 701 with the iDUX4-CTD; endogenous in cells; host or cells: MB135 human myoblasts carrying doxycycline-inducible DUX4 / DUX4-CTD / DUXB / Dux transgenes, with or without IFNG
T1 sequence (P42224 1-750): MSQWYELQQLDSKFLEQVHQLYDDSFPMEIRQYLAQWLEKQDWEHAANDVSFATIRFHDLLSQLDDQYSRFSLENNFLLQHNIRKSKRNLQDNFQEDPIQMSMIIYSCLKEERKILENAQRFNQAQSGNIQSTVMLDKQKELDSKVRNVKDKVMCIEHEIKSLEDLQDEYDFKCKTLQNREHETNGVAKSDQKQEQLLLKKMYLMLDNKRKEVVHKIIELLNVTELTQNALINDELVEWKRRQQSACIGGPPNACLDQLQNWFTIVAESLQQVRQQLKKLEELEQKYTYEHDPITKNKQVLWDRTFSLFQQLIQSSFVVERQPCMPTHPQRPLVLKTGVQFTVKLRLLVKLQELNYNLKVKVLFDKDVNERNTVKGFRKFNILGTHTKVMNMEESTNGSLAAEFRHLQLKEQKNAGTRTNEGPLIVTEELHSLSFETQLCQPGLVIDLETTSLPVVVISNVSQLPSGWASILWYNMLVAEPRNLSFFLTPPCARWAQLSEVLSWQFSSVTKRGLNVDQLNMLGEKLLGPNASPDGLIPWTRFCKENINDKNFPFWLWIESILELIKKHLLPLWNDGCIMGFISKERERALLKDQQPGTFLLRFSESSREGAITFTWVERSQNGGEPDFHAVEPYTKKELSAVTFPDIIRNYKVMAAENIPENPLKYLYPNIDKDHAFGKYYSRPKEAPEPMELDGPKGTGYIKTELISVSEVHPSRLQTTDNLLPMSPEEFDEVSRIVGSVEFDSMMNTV
The assay is described as follows: Western analysis of whole-cell extracts for STAT1 and pSTAT1. The settings on record: doxycycline and IFNG. Format: cell-based. As for the experimental part:
Protein samples were harvested in RIPA buffer [150 mM NaCl, 1% NP-40, 0.5% Na-deocycholate, 1% SDS, 25 mM Tris-HCl pH7.4] supplemented with protease and phosphatase inhibitor tablets (Pierce), followed by sonication in Diagenode Bioruptor. Lysate was cleared by centrifugation at 16000×g and quantified using a Pierce BCA assay (Thermo Fisher Scientific). Samples were run on NuPAGE precast polyacrylamide gels (Invitrogen) and transferred to PVDF membrane. Membranes were blocked in PBS containing 0.1% Tween-20 and 5% non-fat dry milk before overnight incubation at 4° C. with primary antibodies (see resource table for a list of antibodies used in this study). Membranes were incubated with horseradish peroxidase-conjugated secondary antibodies for 1 hour at room temperature and SuperSignal chemiluminescent substrate (Thermo Scientific) was used for detection on film with a Mini-medical 90 processor. Membranes were stripped with Restore Western Blot Stripping Buffer (Pierce).

“Also recorded” adds a separate entry of the source.

B1: mouse Dux: mouse ortholog of human DUX4, SEQ ID NO:15, doxycycline inducible codon altered SEQ ID NO:16 (protein, listed as Mus musculus)
chain: MAEAGSPVGGSGVARESRRRRKTVWQAWQEQALLSTFKKKRYLSFKERKELAKRMGVSDCRIRVWFQNRRNRSGEEGHASKRSIRGSRRLASPQLQEELGSRPQGRGMRSSGRRPRTRLTSLQLRILGQAFERNPRPGFATREELARDTGLPEDTIHIWFQNRRARRRHRRGRPTAQDQDLLASQGSDGAPAGPEGREREGAQENLLPQEEAGSTGMDTSSPSDLPSFCGESQPFQVAQPRGAGQQEAPTRAGNAGSLEPLLDQLLDEVQVEEPAPAPLNLDGDPGGRVHEGSQESFWPQEEAGSTGMDTSSPSDSNSFCRESQPSQVAQPCGAGQEDARTQADSTGPLELLLLDQLLDEVQKEEHVPVPLDWGRNPGSREHEGSQDSLLPLEEAVNSGMDTSIPSIWPTFCRESQPPQVAQPSGPGQAQAPTQGGNTDPLELFLYQLLDEVQVEEHAPAPLNWDVDPGGRVHEGSWESFWPQEEAGSTGLDTSSPSDSNSFFRESKPSQVAQRRGAGQEDARTQADSTGPLELLLFDQLLDEVQKEEHVPAPLDWGRNPGSMEHEGSQDSLLPLEEAANSGRDTSIPSIWPAFCRKSQPPQVAQPSGPGQAQAPIQGGNTDPLELFLDQLLTEVQLEEQGPAPVNVEETWEQMDTTPDLPLTSEEYQTLLDML
As to B1, in the assay on STAT1, the “co-immunoprecipitation with STAT1 / phosphorylated STAT1” value was “confirmed the co-immunoprecipitation of STAT1 and both phosphorylated pSTAT1-Y701 and pSTAT1-S727”. Further, the “suppression of IFNG induction of ISGs (IFIH1, ISG20, CXCL9, CD74)” value (“suppression of IFNG induction of ISGs” for short) in assay [1] is “completely blocked the IFNG induction of these ISG genes”; in assay [1] (listed as Dux), “repress the panel of ISGs even more robustly than the full-length or CTD portion of human DUX4”; in assay [1] (listed as mouse DUX), “completely blocked”.

B2: DUXB: related factor in the DUX family, doxycycline-inducible 3×FLAG-NLS-DUXB control, SEQ ID NO:106 (protein)
chain: DYKDHDGDYKDHDIDYKDDDDKPPKRMRREPKKKRKVNLEGTSGGILQKEFWRNRIQYNQSQKDILQSWFQHDPFPDKAAREQLAKEIGVPESNIQVWFKNYRVKQRKLDYKCFSEKDQTQGHDQSQHLTQEYLPKEARQKQTFITWTQKNRLVQAFERNPFPDIATRKKLAEQTGLQESRIQMWFQKQRSLYLKKSRMEPMNLLVDDPNERPDATVGWHPINLFLPTDSSHYFSCSHSSSGHETLPPVLPSTQAPWDPFRFHVSQGPNVMIMQPTQAVQEGEKSDQPLIIPNHLLTLPILTKDLDTPTPFWLQYQEEHQNHKEHSGSGVPQVKSHSQPEPEHREQQPLNLGQFDISNILQRWDEICQALLAEWEPLKGTH
modifications: 3xFLAG-NLS tag
On to B2, for which the “abundance of pSTAT1 and total STAT1” value with pSTAT1-Y701, pSTAT1-S727 was “did not increase either form of phosphorylated STAT1”. In addition, the “suppression of IFNG induction of ISGs” value in assay [1] is listed as “did not suppress ISG induction by IFNG”.

B3: longCTDmL1dL2: longCTD with first (L)LxxL(L) motif disrupted and second deleted, SEQ ID NOS: 10 and 11 (protein)
chain: MDYKDHDGDYKDHDIDYKDDDDKPPKRMRREPKKKRKVGRAPAQAGGLCSAAPGGGHPAPSWVAFAHTGAWGTGLPAPHVPCAPGALPQGAFVSQAARAAPALQPSQAAPAEGISQPAPARGDFAYAAPAPPDGALSHPQAPRWPPHPGKSREDRDPQRDGLPGPCAVAQPGPAQAGPQGQGVLAPPTSQGSPWWGWGRGPQVAGAAWEPQAGAAPPPQPAPPDASASARQGQMQGIPAPSQALQEPAPWSALPCGLLAAEAAASPEFLQQAQPLLETEAPGELEASEEAASLEAPLSEEEYRA
Turning to B3, the “co-immunoprecipitation with STAT1 / phosphorylated STAT1” value with STAT1 is listed as “both show binding to STAT1; also recorded: STAT1 is associated”. Besides, the “suppression of IFNG induction of ISGs” value in assay [1] is recorded as “does not suppress any of the IFNG-induced ISG genes”; in assay [1] (listed as iDUX4-CTDmL1dL2), “did not block the panel of ISGs”.
